# Experimental data from article PMC4643400 (Human mutation, 2015).
# B1: Trm734-9myc (natural protein, S. cerevisiae, UniProt Q08924 1-1013, looked up)
# chain: MKDLSHYGPALCVKFYNDYVLAGYGPFIHVYDYHSATLINKCRLFHYNKVHGLSLSSEGKILAYGARSVTIVELEDVLKKESLVDFERINSDWITGATFSFDNLQIYLLTCYNKVLICDLNCEVLFRKSLGGERSILYSGIIKVFGPDKVYVNAGTVMGGVIIWDLFSETKIHNLLGHEGSIFYVNLSNNGRYVASCSDDRSIRLWDLETGKQLSVGWSHTARIWNLMFFDNDSKLISVSEDCTCRVWNIIESRENVAELSISNVYEVHLIKSIWGVDVKDDEMIAVTSGNDGRLKLIDLLQLKRHGDEETSFSLDDIAKQCGDIFEKNESIKGFQWFSFGVIAITSLGKILKYSDVTKQWKLLLTNEKFNSYPITNGIQTQNIAVFSNNKSDILLIKFSKDSADIIETEEFHLDELSKTNNCLVTEYDDDSFLLTLQSPNPREKFVCLEISLQNLKIKSKHCFNKPENFSSSCLTSFRNHILVGSRFSTLVIYNLLDESEEPFIIRRLSPGDTTTSIEFVEDKDNSAVFSVTNRDGYYVFIELTKNSLEEGPYRLSYKVLHSNKMMKGFLEGAFFNSKGEYITYGFKSSLFYLYNETNCYELASEVCGGSHRLWNLAKITDGHVLMYIKASRFHLRKIYNSIVPETLENGVHGREIRDISICPVSNTNTNDNFKDGHIFCTASEDTTIKLGYFNNRTGKVQNFWTQRKHVSGLQRCQFINHKLMISSSAREELFLWELNDKYNKRPYMTIRQALPVSTNNSDLRIMDFDVKFISQSGDFLLVTVYSDSTIKIWHYRENQNKFDLIMQGRYKTCCLFNVVFIALKEELLVVISPTDGHLVVYNITEYVPFSVDPISGDLVDHKLDATISNLPAPVAQLPVHQSGVKSLDYVANATRTSATILTGGDDNGLGLSNLKLDDSNKVTLKTSDFIAAAASSTITSGMLINGGKEVITTSVDQVIRAWEITAGKLSLVDKKRTTVADTGSLEIISNDEDADSEKTLLIGGVGLSIWKK
# Target: T1, Trm7-A26P-PT (S. cerevisiae, UniProt P38238 1-310, A26P)
# T1 sequence (looked up): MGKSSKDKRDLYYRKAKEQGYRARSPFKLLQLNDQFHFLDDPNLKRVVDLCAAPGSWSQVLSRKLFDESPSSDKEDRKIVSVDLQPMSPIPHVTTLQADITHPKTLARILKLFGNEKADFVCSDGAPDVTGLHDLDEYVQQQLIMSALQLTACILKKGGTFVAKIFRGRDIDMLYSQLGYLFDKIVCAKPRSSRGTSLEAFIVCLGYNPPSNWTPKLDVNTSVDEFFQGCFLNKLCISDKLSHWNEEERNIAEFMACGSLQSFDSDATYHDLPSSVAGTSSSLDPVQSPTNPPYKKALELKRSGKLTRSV
# Experiment: pull-down
binder,measurement,value
B1,fold of Trm734-9myc pulled down against Trm7-MORF from a CEN plasmid,~10 fold
